Common to all, as to conditions: both partners purified
Experiment [1] concerns the target Cdk2/cyclin A binary complex (human, UniProt P24941 1-298; P20248 173-432). Nature of the experiment: single-molecule fluorescence anisotropy (smFA); BODIPY-labelled single-Cys p27, not phosphorylated, free or in complex with Cdk2/cyclin A, diluted to pM; 20 mM HEPES pH 7.5, 300 mM NaCl, 40 µM TROLOX; average anisotropy of free and complexed p27 compared.
Experiment [2] has as its target T1, Cdk2/cyclin A binary complex (human, UniProt P24941 1-298; P20248 173-432). As to the kind of experiment: single-molecule fluorescence anisotropy (smFA); BODIPY-labelled single-cysteine p27 in complex with Cdk2/cyclin A, freely diffusing molecules at pM concentration; 20 mM HEPES pH 7.5, 300 mM NaCl, 40 µM TROLOX. A general note: In fluorescence polarisation assays a small probe gives low polarisation when free and higher when bound to something large.

For experiment [3], the target named is T1, Cdk2/cyclin A binary complex. As to the kind of experiment: FRET or BRET; single-molecule FRET (smMFD) within dual-labelled p27 in complex with Cdk2/cyclin A, freely diffusing molecules at pM concentration; 20 mM HEPES pH 7.5, 300 mM NaCl, 40 µM TROLOX.
Experiment [4] has the same target. Nature of the experiment: ITC; 10 µM p27 or p27 Y to E variants injected into 1 µM Cdk2/cyclin A binary complex; 20 mM HEPES pH 7.5, 300 mM NaCl, 2 mM TCEP; experiments from 5 to 25 °C in intervals of 5 °C (temperature of the tabulated values not stated); single-site binding model. (In general: Isothermal titration calorimetry measures the heat released or taken up as one component is titrated into another.)

B1: p27-C29 (full-length p27-Y89F with the single native Cys 29, labelled with BODIPY-FL) (natural protein)
chain: MSNVRVSNGSPSLERMDARQAEHPKPSACRNLFGPVDHEELTRDLEKHARDMEEASQRKWNFDFQNHKPLEGKYEWQEVEKGSLPEFYFRPPRPPKGASKVPAQESQDVSGSRPAAPLIGAPANSEDTHLVDPKTDPSDSQTGLAEQSAGIRKRPATDDSSTQNKRANRTEENVSDGSPNAGSVEQTPKKPGLRRRQT
modifications: BODIPY-FL on Cys 29
notes: p27Kip1 (p27), human, residues 1-198 (full length), Y89F; Cys 29 kept, the other three native Cys replaced; also called p27-29C; source: E. coli, purified (Ni-NTA, His-tag removed with thrombin, reverse-phase HPLC over C4); labelled with BODIPY-FL
Turning to B1, the binding result in experiment [1] was “binds”.

B2: BODIPY-labeled p27-C29 (natural protein)
chain: MSNVRVSNGSPSLERMDARQAEHPKPSACRNLFGPVDHEELTRDLEKHARDMEEASQRKWNFDFQNHKPLEGKYEWQEVEKGSLPEFYFRPPRPPKGASKVPAQESQDVSGSRPAAPLIGAPANSEDTHLVDPKTDPSDSQTGLAEQSAGIRKRPATDDSSTQNKRANRTEENVSDGSPNAGSVEQTPKKPGLRRRQT
modifications: BODIPY-FL on the native cysteine at 29
notes: p27Kip1 (p27), human, p27-Y89F background with the single native Cys 29 kept; also called p27–29C; source: E. coli, purified; labelled with BODIPY-FL
For the molecule B2, the binding result in experiment [2] is recorded as “binds”.

B3: p27-C75 (Cys-less full-length p27-Y89F with E75C, labelled with BODIPY-FL) (natural protein)
chain: MSNVRVSNGSPSLERMDARQAEHPKPSAARNLFGPVDHEELTRDLEKHARDMEEASQRKWNFDFQNHKPLEGKYCWQEVEKGSLPEFYFRPPRPPKGASKVPAQESQDVSGSRPAAPLIGAPANSEDTHLVDPKTDPSDSQTGLAEQSAGIRKRPATDDSSTQNKRANRTEENVSDGSPNAGSVEQTPKKPGLRRRQT
modifications: BODIPY-FL on Cys 75
notes: p27Kip1 (p27), human, residues 1-198 (full length), Y89F, Cys-less background, Glu 75 to Cys; also called p27-75C; source: E. coli, purified (Ni-NTA, His-tag removed with thrombin, reverse-phase HPLC over C4); labelled with BODIPY-FL
In the case of B3, the binding result in experiment [1] is “binds”.

B4: p27-C54 (Cys-less full-length p27-Y89F with E54C, labelled with BODIPY-FL) (natural protein)
chain: MSNVRVSNGSPSLERMDARQAEHPKPSAARNLFGPVDHEELTRDLEKHARDMECASQRKWNFDFQNHKPLEGKYEWQEVEKGSLPEFYFRPPRPPKGASKVPAQESQDVSGSRPAAPLIGAPANSEDTHLVDPKTDPSDSQTGLAEQSAGIRKRPATDDSSTQNKRANRTEENVSDGSPNAGSVEQTPKKPGLRRRQT
modifications: BODIPY-FL on Cys 54
notes: p27Kip1 (p27), human, residues 1-198 (full length), Y89F, Cys-less background, Glu 54 to Cys; also called p27-54C; source: E. coli, purified (Ni-NTA, His-tag removed with thrombin, reverse-phase HPLC over C4); labelled with BODIPY-FL
For the molecule B4, in experiment [1], the binding result is listed as “binds”.

B5: p27-C29-54 (Alexa Fluor 488 / Alexa Fluor 647 labelled) (natural protein)
chain: MSNVRVSNGSPSLERMDARQAEHPKPSACRNLFGPVDHEELTRDLEKHARDMECASQRKWNFDFQNHKPLEGKYEWQEVEKGSLPEFYFRPPRPPKGASKVPAQESQDVSGSRPAAPLIGAPANSEDTHLVDPKTDPSDSQTGLAEQSAGIRKRPATDDSSTQNKRANRTEENVSDGSPNAGSVEQTPKKPGLRRRQT
modifications: Alexa Fluor 488 maleimide and Alexa Fluor 647 maleimide on the cysteines at 29 and 54
notes: p27Kip1 (p27), human, p27-Y89F background with the native Cys 29 kept; source: E. coli, purified; dye-labelled, dual-labelled species separated by ion-exchange chromatography
Regarding B5, the binding result in experiment [3] is “binds”.

B6: pY88-p27-C54-93 (Alexa Fluor 488 / Alexa Fluor 647 labelled) (natural protein)
chain: MSNVRVSNGSPSLERMDARQAEHPKPSAARNLFGPVDHEELTRDLEKHARDMECASQRKWNFDFQNHKPLEGKYEWQEVEKGSLPEFYFRPPCPPKGASKVPAQESQDVSGSRPAAPLIGAPANSEDTHLVDPKTDPSDSQTGLAEQSAGIRKRPATDDSSTQNKRANRTEENVSDGSPNAGSVEQTPKKPGLRRRQT
modifications: phosphotyrosine at 88; Alexa Fluor 488 maleimide and Alexa Fluor 647 maleimide on the cysteines at 54 and 93
notes: p27Kip1 (p27), human, in the Cys-less p27-Y89F background; source: E. coli, purified; dye-labelled; phosphorylated with ABL-KD
As to B6, the binding result in experiment [3] was “binds”.

B7: Y74E/Y88E-p27 (natural protein)
chain: MSNVRVSNGSPSLERMDARQAEHPKPSACRNLFGPVDHEELTRDLEKHCRDMEEASQRKWNFDFQNHKPLEGKEEWQEVEKGSLPEFEFRPPRPPKGACKVPAQESQDVSGSRPAAPLIGAPANSEDTHLVDPKTDPSDSQTGLAEQCAGIRKRPATDDSSTQNKRANRTEENVSDGSPNAGSVEQTPKKPGLRRRQT
notes: p27Kip1 (p27), human, residues 1–198 (full length); also called Y88E/Y74E; dual Y phosphomimetic p27; source: E. coli, purified (Ni2+-NTA, His-tag removed with thrombin, reverse-phase HPLC over C4 resin)
In experiment [4], B7 gave a Kd of 14 nM and a dH of -34.4 kcal/mol.

B8: BODIPY-labeled pY88-p27-C93 (natural protein)
chain: MSNVRVSNGSPSLERMDARQAEHPKPSAARNLFGPVDHEELTRDLEKHARDMEEASQRKWNFDFQNHKPLEGKYEWQEVEKGSLPEFYFRPPCPPKGASKVPAQESQDVSGSRPAAPLIGAPANSEDTHLVDPKTDPSDSQTGLAEQSAGIRKRPATDDSSTQNKRANRTEENVSDGSPNAGSVEQTPKKPGLRRRQT
modifications: phosphotyrosine at 88; BODIPY-FL on the cysteine at 93
notes: p27Kip1 (p27), human, in the Cys-less p27-Y89F background; source: E. coli, purified; labelled with BODIPY-FL; phosphorylated with ABL-KD
As for B8, the binding result in experiment [2] was “binds”.

B9: p27-C75-110 (Alexa Fluor 488 / Alexa Fluor 647 labelled) (natural protein)
chain: MSNVRVSNGSPSLERMDARQAEHPKPSAARNLFGPVDHEELTRDLEKHARDMEEASQRKWNFDFQNHKPLEGKYCWQEVEKGSLPEFYFRPPRPPKGASKVPAQESQDVCGSRPAAPLIGAPANSEDTHLVDPKTDPSDSQTGLAEQSAGIRKRPATDDSSTQNKRANRTEENVSDGSPNAGSVEQTPKKPGLRRRQT
modifications: Alexa Fluor 488 maleimide and Alexa Fluor 647 maleimide on the cysteines at 75 and 110
notes: p27Kip1 (p27), human, in the Cys-less p27-Y89F background; source: E. coli, purified; dye-labelled, dual-labelled species separated by ion-exchange chromatography
Consider B9, for which, in experiment [3], the binding result is reported as “binds”.

B10: BODIPY-labeled p27-C93 (natural protein)
chain: MSNVRVSNGSPSLERMDARQAEHPKPSAARNLFGPVDHEELTRDLEKHARDMEEASQRKWNFDFQNHKPLEGKYEWQEVEKGSLPEFYFRPPCPPKGASKVPAQESQDVSGSRPAAPLIGAPANSEDTHLVDPKTDPSDSQTGLAEQSAGIRKRPATDDSSTQNKRANRTEENVSDGSPNAGSVEQTPKKPGLRRRQT
modifications: BODIPY-FL on the cysteine at 93
notes: p27Kip1 (p27), human, in the Cys-less p27-Y89F background; source: E. coli, purified; labelled with BODIPY-FL
For the molecule B10, the binding result in experiment [2] is recorded as “binds”.

B11: p27-C93 (Cys-less full-length p27-Y89F with R93C, labelled with BODIPY-FL) (natural protein)
chain: MSNVRVSNGSPSLERMDARQAEHPKPSAARNLFGPVDHEELTRDLEKHARDMEEASQRKWNFDFQNHKPLEGKYEWQEVEKGSLPEFYFRPPCPPKGASKVPAQESQDVSGSRPAAPLIGAPANSEDTHLVDPKTDPSDSQTGLAEQSAGIRKRPATDDSSTQNKRANRTEENVSDGSPNAGSVEQTPKKPGLRRRQT
modifications: BODIPY-FL on Cys 93
notes: p27Kip1 (p27), human, residues 1-198 (full length), Y89F, Cys-less background, Arg 93 to Cys; also called p27-93C; source: E. coli, purified (Ni-NTA, His-tag removed with thrombin, reverse-phase HPLC over C4); labelled with BODIPY-FL
Take B11: the binding result in experiment [1] is given as “binds”.

B12: p27-C54-93 (Alexa Fluor 488 / Alexa Fluor 647 labelled) (natural protein)
chain: MSNVRVSNGSPSLERMDARQAEHPKPSAARNLFGPVDHEELTRDLEKHARDMECASQRKWNFDFQNHKPLEGKYEWQEVEKGSLPEFYFRPPCPPKGASKVPAQESQDVSGSRPAAPLIGAPANSEDTHLVDPKTDPSDSQTGLAEQSAGIRKRPATDDSSTQNKRANRTEENVSDGSPNAGSVEQTPKKPGLRRRQT
modifications: Alexa Fluor 488 maleimide and Alexa Fluor 647 maleimide on the cysteines at 54 and 93
notes: p27Kip1 (p27), human, in the Cys-less p27-Y89F background; also called p27-C54-C93; source: E. coli, purified; dye-labelled, dual-labelled species separated by ion-exchange chromatography
For B12, the binding result in experiment [3] is “binds”.

B13: p27-C40 (Cys-less full-length p27-Y89F with E40C, labelled with BODIPY-FL) (natural protein)
chain: MSNVRVSNGSPSLERMDARQAEHPKPSAARNLFGPVDHECLTRDLEKHARDMEEASQRKWNFDFQNHKPLEGKYEWQEVEKGSLPEFYFRPPRPPKGASKVPAQESQDVSGSRPAAPLIGAPANSEDTHLVDPKTDPSDSQTGLAEQSAGIRKRPATDDSSTQNKRANRTEENVSDGSPNAGSVEQTPKKPGLRRRQT
modifications: BODIPY-FL on Cys 40
notes: p27Kip1 (p27), human, residues 1-198 (full length), Y89F, Cys-less background, Glu 40 to Cys; also called p27-40C; source: E. coli, purified (Ni-NTA, His-tag removed with thrombin, reverse-phase HPLC over C4); labelled with BODIPY-FL
B13: in experiment [1], the binding result is listed as “binds”.

As usually defined, the Kd is a measure of binding affinity in units of concentration. Read a low Kd as tighter binding.

The values are drawn from paper PMC6459857 (Nature Communications, 2019).
